From publication PMC2141641 (The Journal of Cell Biology, 1997) come the findings set out here.

The labels stand for the following.
B1: GST-CD36 fusion protein FP67-157 (domain or fragment, human, UniProt P16671 67-157, looked up)
chain: IFDVQNPQEVMMNSSNIQVKQRGPYTYRVRFLAKENVTQDAEDNTVSFLQPNGAIFEPSLSVGTEADNFTVLNLAVAAASHIYQNQFVQMI
B2: GST-CD36 fusion protein FP93-120 (domain or fragment, human, UniProt P16671 93-120, looked up)
chain: YRVRFLAKENVTQDAEDNTVSFLQPNGA

Common to all, as to assay: radioligand binding
In one assay the target is Thrombospondin-1 (human, UniProt P07996 19-1170, 125I label (radiolabeled TSP-1) in the binding assays).
In assay [1] the target is B2.
In assay [2] the target is CD36 expressed on Bowes melanoma cells stably transfected with human CD36 cDNA (human, UniProt P16671 1-472).
Sequence of CD36 expressed on Bowes melanoma cells stably transfected with human CD36 cDNA (P16671 whole entry): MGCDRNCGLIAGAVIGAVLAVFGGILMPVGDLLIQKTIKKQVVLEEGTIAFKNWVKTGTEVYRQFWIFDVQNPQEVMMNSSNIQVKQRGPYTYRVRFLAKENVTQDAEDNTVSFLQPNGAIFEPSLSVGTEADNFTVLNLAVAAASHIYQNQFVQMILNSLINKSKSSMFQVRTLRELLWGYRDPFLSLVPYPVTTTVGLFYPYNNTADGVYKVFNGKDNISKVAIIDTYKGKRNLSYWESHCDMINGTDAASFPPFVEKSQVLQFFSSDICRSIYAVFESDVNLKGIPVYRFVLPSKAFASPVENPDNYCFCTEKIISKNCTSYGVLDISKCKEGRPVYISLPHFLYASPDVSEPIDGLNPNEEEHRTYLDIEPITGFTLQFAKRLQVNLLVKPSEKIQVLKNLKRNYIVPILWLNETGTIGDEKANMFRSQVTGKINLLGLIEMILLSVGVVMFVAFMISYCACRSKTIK

Sequence of Thrombospondin-1 (P07996 19-1170): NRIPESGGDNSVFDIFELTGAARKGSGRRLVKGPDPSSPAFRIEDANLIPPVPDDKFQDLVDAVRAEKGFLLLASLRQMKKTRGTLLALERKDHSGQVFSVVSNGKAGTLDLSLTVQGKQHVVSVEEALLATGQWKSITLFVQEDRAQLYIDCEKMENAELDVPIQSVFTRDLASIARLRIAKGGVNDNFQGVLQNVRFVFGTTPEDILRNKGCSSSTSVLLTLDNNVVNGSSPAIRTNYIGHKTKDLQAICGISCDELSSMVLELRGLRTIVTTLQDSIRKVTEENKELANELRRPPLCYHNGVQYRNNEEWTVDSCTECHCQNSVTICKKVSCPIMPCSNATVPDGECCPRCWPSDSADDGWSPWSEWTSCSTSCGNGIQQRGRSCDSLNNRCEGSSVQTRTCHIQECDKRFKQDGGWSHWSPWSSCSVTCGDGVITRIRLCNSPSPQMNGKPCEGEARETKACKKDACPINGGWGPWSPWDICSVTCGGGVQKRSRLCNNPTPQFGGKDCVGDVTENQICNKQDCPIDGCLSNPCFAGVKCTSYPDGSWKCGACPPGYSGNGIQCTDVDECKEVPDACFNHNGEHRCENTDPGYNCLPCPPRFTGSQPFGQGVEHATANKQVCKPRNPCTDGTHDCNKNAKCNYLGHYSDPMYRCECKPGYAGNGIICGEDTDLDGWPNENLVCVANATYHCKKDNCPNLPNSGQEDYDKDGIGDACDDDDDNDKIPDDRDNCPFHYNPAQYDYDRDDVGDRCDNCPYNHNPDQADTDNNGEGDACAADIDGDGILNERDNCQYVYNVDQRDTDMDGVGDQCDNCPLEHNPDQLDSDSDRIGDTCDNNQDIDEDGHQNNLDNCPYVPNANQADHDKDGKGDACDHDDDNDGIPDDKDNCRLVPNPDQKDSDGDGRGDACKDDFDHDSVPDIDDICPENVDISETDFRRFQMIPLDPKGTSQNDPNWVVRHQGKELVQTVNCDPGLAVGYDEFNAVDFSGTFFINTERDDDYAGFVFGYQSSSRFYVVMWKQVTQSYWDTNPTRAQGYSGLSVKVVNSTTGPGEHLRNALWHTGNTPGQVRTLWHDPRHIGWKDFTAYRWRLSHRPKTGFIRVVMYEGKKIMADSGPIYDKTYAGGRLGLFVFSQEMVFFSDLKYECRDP

Take B1: in the assay with Thrombospondin-1, the binding result is “binds”. In the case of SPWDIASVTAGGGVQKRSK [TSP-1 peptide Mal III], in assay [1], the binding result is “binds”. The IC50 in assay [2] came out at 8.6 ± 1.12 µM. For the molecule B2, the binding result with Thrombospondin-1 is “binds”. NGVQYRN [TSP-1 peptide Col overlap] came in with an IC50 in assay [2] of 30.1 ± 8.88 µM.

By IC50 is commonly meant the concentration that inhibits the measured activity by half.
